Measured values reported in PMC9562341, “AI protein structure prediction-based modeling and mutagenesis of a protostome receptor and peptide ligands reveal key residues for their interaction” (The Journal of Biological Chemistry, 2022).
Like-named read-outs stand apart in the source and are kept apart here. Where no end group is shown, it is not given here.

How the values were obtained:
[1] = molecular target: T1, ALKR (Aplysia leucokinin-like peptide receptor) (Aplysia californica, UniProt A0A977Q7Q2); assay: IP1 accumulation assay, CHO-K1 cells transfected with ALKR; type: cell-based; settings: for EC50: CHO-K1 transiently transfected with ALKR, no promiscuous Gαq, ALK1 n = 13, ALK2 n = 4, others n = 3
T1 sequence (A0A977Q7Q2 1-429): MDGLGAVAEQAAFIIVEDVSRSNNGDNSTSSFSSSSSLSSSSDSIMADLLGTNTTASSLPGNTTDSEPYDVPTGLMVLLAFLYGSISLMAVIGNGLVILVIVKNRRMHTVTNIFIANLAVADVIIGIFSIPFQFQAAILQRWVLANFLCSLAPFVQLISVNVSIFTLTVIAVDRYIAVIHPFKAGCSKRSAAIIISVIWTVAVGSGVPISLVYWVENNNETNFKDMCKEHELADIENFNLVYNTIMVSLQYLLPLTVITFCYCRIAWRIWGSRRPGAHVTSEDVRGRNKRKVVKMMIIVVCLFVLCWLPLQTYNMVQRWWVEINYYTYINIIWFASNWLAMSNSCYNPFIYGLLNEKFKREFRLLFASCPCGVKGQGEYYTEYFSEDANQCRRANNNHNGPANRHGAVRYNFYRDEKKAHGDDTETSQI
From the text: To examine whether the native ALKs could activate the putative ALKR, we expressed the ALKR in Chinese hamster ovary K1 (CHO-K1) cells and examined ALK-mediated changes in the concentration of inositol monophosphate (IP1), a degradation product of the second messenger (inositol trisphosphate) in the Gq signaling pathway upon ligand-induced activation ([88]) (Figs. 4 and S5). […] All endogenous ALK peptides could activate ALKR in a dose-dependent manner (Fig. 4, A–C). […] The lowest EC50 values were for ALK8 (EC50 = 10 nM) and ALK9 (EC50 = 10 nM). The EC50 values for ALK1, ALK2, ALK3, ALK4, ALK5, ALK10, ALK13 were slightly higher than that of ALK9, but there was no statistically significant difference between them (Table S5).
(§1) IP1 accumulation assay measures concentration of IP1 ([88]), that is hydrolyzed from the second messenger, inositol trisphosphate, generated by Gαq pathway when GPCR expressed in CHO-K1 cells is activated by an appropriate ligand. We note two reasons that we selected mammalian CHO-K1 cells for assays for ligand-receptor (GPCR) activity: (1) there are no established molluscan cell lines available; (2) CHO-K1 cells have been extensively utilized not only for vertebrate GPCRs (e.g., ([97])) but also for invertebrate/protostome GPCRs, including other molluscs ([9], [11], [73]), annelids ([8]), jellyfish ([98]), Caenorrhabditis elegans ([99]), and arthropods ([76], [78], [79], [80]). Given that LKRs are only present in protostomes ([6], [7], [66], [67]), an additional advantage of using mammalian cells to assay ligand-receptor activity is that the effects of a possible native LKR in protostome cell lines could be excluded.
(§2) In order to express the Aplysia putative receptor transiently in CHO-K1, the cDNA was cloned into the mammalian expression vector pcDNA3.1(+). […] Transfection experiments were performed when the cells were grown to 70 to 90% confluence. For the ALKR, in each dish (60-mm diameter), 4 μg of the putative receptor plasmids [in pcDNA3.1(+)] were mixed with 400 μl of Opti-MEM (Gibco, 11058021), followed by the addition of 15 μl of Turbofect (Thermo Fisher Scientific, R0531). […] Thus, 3 μg of the putative receptor plasmids [in pcDNA3.1(+)] and 3 μg of promiscuous Gαq protein ([89]) [in pcDNA3.1(+)] were cotransfected in the above procedure for the Anopheles LKR ([8], [10]). The CHO-K1 cells with the reagents added above were mixed gently and incubated at room temperature for 15 min. The DNA/Turbofect mixture dropwise was then added to the dish, and the cells were incubated at 37 °C in 5% CO2 overnight. The next day, the cells were trypsinized and reseeded in opaque white 96-well half-area (Corning, 3688) or 384-well tissue culture–treated plates (Corning, 3570) at a density of 20,000 cells/well in F-12K and 10% FBS and incubated at 37 °C in 5% CO2 overnight. On the third day, the activation of the receptors was detected by monitoring IP1 accumulation using IP1 detection kit (Cisbio, 62IPAPEB) with a Tecan Spark plate reader. Except for using 0.5 × reagents for the anti-IP1-cryptate and IP1-d2 reagents, all other procedures were performed in accordance with the IP1 detection kit manufacturer’s instructions.

[2] = molecular target: Aplysia leucokinin-like peptide receptor (Aplysia californica)
[3] = molecular target: ALKR N314A (Aplysia californica)
[4] = molecular target: ALKR L157Q & I329Q (Aplysia californica)
[5] = molecular target: ALKR I329Q (Aplysia californica)
[6] = molecular target: ALKR Q317A (Aplysia californica)
[7] = molecular target: ALKR Q133A (Aplysia californica)
[8] = molecular target: ALKR Q133A & Y213A & Q317A (Aplysia californica)
[9] = molecular target: ALKR Q250A & Q311A (Aplysia californica)
[10] = molecular target: ALKR Y213A (Aplysia californica)
[11] = molecular target: ALKR L157Q (Aplysia californica)
[12] = molecular target: Aplysia leucokinin-like peptide receptor (Aplysia californica); remark: listed apart in the source
[13] = molecular target: T2, Anopheles LKR (Anopheles stephensi, UniProt Q694V6); assay: IP1 accumulation assay, CHO-K1 cells cotransfected with Anopheles LKR and promiscuous Gαq; type: cell-based; settings: log scale, mean ± SEM, n = 3
T2 sequence (Q694V6 1-573): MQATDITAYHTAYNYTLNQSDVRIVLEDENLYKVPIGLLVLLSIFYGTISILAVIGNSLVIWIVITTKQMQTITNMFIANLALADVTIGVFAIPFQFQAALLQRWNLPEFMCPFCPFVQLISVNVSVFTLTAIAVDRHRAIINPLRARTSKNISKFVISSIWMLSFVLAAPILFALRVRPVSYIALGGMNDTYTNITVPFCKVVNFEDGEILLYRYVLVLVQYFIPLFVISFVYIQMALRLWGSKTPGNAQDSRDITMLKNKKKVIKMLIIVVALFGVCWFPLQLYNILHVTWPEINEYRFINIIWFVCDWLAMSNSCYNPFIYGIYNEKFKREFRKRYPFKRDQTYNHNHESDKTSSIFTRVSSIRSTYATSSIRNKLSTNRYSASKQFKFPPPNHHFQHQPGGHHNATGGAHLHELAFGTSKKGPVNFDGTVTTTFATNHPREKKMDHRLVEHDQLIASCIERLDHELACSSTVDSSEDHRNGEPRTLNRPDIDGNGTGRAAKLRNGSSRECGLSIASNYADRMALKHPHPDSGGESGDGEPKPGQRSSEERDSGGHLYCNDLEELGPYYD
From the text: Considering the similarity of leucokinin-like peptides in different species (Fig. 1), we sought to evaluate cross-activity between leucokinin peptides and their receptors in different species. We selected A. stephensi because it is a pest, and this would also provide an opportunity to determine if Aplysia LKs could be potentially used as insecticides ([67]). […] Thus, we cotransfected promiscuous Gαq with the Anopheles receptor, whereas there was no cotransfection of promiscuous Gαq for ALKR.
as §1
as §2, with “Except for using 0.5 × reagents for the anti-IP1-cryptate and IP1-d2 reagents, all other procedures were performed in accordance with the IP1 detection kit manufacturer’s instructions.” left out

[14] = log scale, IP1 detection kit (Cisbio), mean ± SEM, inactive: greater than highest concentration tested, read-out: log [EC50] on ALKR (converted)

AAFHSWS-NH2 [ALK1_A1]
EC50 [1, 14]: 141 nM

AGFAPWA-NH2 [ALK4]
EC50 [1, 14]: 19.5 nM

ALK1 with H4 replaced with A (peptide)
EC50 of IP1 accumulation in CHO-K1 cells transfected with ALKR [2]: 51 nM

Aplysia leucokinin-like peptide 1
EC50 of IP1 accumulation in CHO-K1 cells expressing the ALKR mutant, activated by ALK1 [3]: 120 nM
EC50 of IP1 accumulation in CHO-K1 cells expressing the ALKR mutant, activated by ALK1 [4]: 35000 nM
EC50 of IP1 accumulation in CHO-K1 cells expressing the ALKR mutant, activated by ALK1 [5]: 6800 nM
EC50 of IP1 accumulation in CHO-K1 cells expressing the ALKR mutant, activated by ALK1 [6]: 56 nM
EC50 of IP1 accumulation in CHO-K1 cells expressing the ALKR mutant, activated by ALK1 [7]: 78 nM
EC50 of IP1 accumulation in CHO-K1 cells expressing the ALKR mutant, activated by ALK1 [8]: 13000 nM
EC50 of IP1 accumulation in CHO-K1 cells expressing the ALKR mutant, activated by ALK1 [9]: 19000 nM
EC50 of IP1 accumulation in CHO-K1 cells expressing the ALKR mutant, activated by ALK1 [10]: 370 nM
EC50 of IP1 accumulation in CHO-K1 cells expressing the ALKR mutant, activated by ALK1 [11]: 77 nM

Aplysia leucokinin-like peptide 6
EC50 of IP1 accumulation in CHO-K1 cells transfected with ALKR [12]: 32 nM

Aplysia leucokinin-like peptide 7
EC50 of IP1 accumulation in CHO-K1 cells transfected with ALKR [12]: 92 nM

Aplysia leucokinin-like peptide 8
EC50 of IP1 accumulation in CHO-K1 cells transfected with ALKR [12]: 10 nM

Aplysia leucokinin-like peptide 9
EC50 of IP1 accumulation in CHO-K1 cells transfected with ALKR [12]: 10 nM

Aplysia leucokinin-like peptide 11
EC50 of IP1 accumulation in CHO-K1 cells transfected with ALKR [12]: 62 nM

Aplysia leucokinin-like peptide 12
EC50 of IP1 accumulation in CHO-K1 cells transfected with ALKR [12]: 330 nM

DTPRYVSKQKFHSWG-NH2 [Anopheles LK1, reference compound]
EC50 [1, 14]: 427 nM
EC50 [13]: 3.63 nM

LAAFHAWS-NH2 [ALK12]
EC50 [1, 14]: 295 nM

PAAFHAWS-NH2 [ALK11]
EC50 [1, 14]: 61.7 nM

PAAHSWS-NH2 [ALK1_A3]
EC50 ([1]; IP1 accumulation, average, rounded to two significant figures, read-out: EC50 on ALKR): > 10000 nM
Activation of ALKR (in words) ([1]; IP1 accumulation in CHO-K1 transfected with ALKR): not active
Active (√ active / × not active) ([1]; IP1 accumulation, ALKR, tick or cross in column Active (EC50)): ×
EC50 [1, 14]: > 10000 nM
